The data set deals with HuR (ELAVL1) (Homo sapiens, UniProt Q15717 Q15717:1-326). Kind of data set: MITOMI; not inhibited by clemizole 0.1 mM, inhibited by ATA. To be noted: tags: C-terminal V5-6xHis; bodipy-Lys labelled; wheat germ extract; ORFeome clone (Open Biosystems); label: Cy3.

From US20100260717, “METHODS OF […] A […] FAMILY VIRAL INFECTION, COMPOSITIONS FOR […] A […] FAMILY VIRAL INFECTION, AND […] ASSAYS FOR […] COMPOSITIONS FOR […] A […] FAMILY VIRAL INFECTION” (published 2010) come the findings set out here.

Sequence of HuR (ELAVL1) (Q15717 whole entry, one chain of several): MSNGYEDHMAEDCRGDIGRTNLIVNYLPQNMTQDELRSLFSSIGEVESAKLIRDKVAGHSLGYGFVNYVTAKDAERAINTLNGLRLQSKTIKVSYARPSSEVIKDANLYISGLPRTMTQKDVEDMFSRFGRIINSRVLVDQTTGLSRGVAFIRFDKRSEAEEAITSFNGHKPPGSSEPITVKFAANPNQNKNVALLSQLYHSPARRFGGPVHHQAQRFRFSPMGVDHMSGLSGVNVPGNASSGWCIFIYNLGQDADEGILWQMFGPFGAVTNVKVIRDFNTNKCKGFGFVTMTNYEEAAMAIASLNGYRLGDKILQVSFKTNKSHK
Protocol: Binding of HuR to the consensus 4A RNA sequence was tested in the presence of the inhibitory molecules shown to inhibit RNA binding by NS4B.

For AUUUAUUUAUUUAUUUA (ssRNA) [4A], the binding result is “binds”.
